# Laboratory results taken from PMC3354533.
# Target: endogenous calcineurin A (CaNA) in mouse primary cortical neurons (mouse (endogenous in primary cortical neurons)) (UniProt P63328)
# Test: FRET or BRET
"565/522 ratio, spine, AD brain SEC fraction 60 min","FRET Ratio increase, cytoplasm, 6 hours of TgCM","FRET Ratio increase, nucleus, 6 hours of TgCM","peak of the FRET distribution in spines, 15 min of TgCM","peak of the FRET distribution in spines, 30 min of TgCM","peak of the FRET distribution in spines, 60 min of TgCM",Substance
0.451,0.51,0.49,0.45,0.48,0.48,endogenous calcineurin B subunit (CaNB) in mouse primary cortical neurons (from UniProt Q63810 1-170) (natural protein)
,,,0.38,0.39,0.4,endogenous calmodulin (CaM) in mouse primary cortical neurons (from UniProt P0DP26 1-149) (natural protein)
